Fold WT and ADCC log(EC50) data for 15 substances are collected here from patent EP3342782A1.

Test [1] addresses extracellular region of human V158 FcγRIIIa with C-terminal 6x His-tag and GST-tag (human) (UniProt P08637). The test is described as follows: SPR; fold vs WT. (In general: SPR reads the build-up and loss of mass on a sensor chip optically.)
Test [2] has as its target human FcγRIIIa on PBMCs expressing heterozygous V158/F158 FcγRIIIa (human) (UniProt P08637). The test is described as follows: cell-based or functional assay.

E258H alemtuzumab (antibody) gave a Fold WT in test [1] of 5.5 fold.

The substance E258Y alemtuzumab (antibody) showed a Fold WT in test [1] of 1.77 fold.

Turning to E272H alemtuzumab (antibody), the Fold WT in test [1] came to 384 fold.

In the case of E283L alemtuzumab (antibody), the Fold WT in test [1] amounted to 2.56 fold.

H268D alemtuzumab (antibody) showed a Fold WT in test [1] of 5.66 fold.

With I332D alemtuzumab (antibody), in test [1], the Fold WT stood at 11.2 fold.

K246H alemtuzumab (antibody) yielded a Fold WT in test [1] of 22.4 fold.

As to K246Y alemtuzumab (antibody), the Fold WT in test [1] came out at 7.07 fold.

In the case of K326E alemtuzumab (antibody), the Fold WT in test [1] is 3.13 fold.

Turning to R255Y alemtuzumab (antibody), the Fold WT in test [1] stood at 1.41 fold.

Take S239D/I332E alemtuzumab (antibody): the ADCC log(EC50) in test [2] is 0.49 log(ng/ml).

In the case of S239E alemtuzumab (antibody), in test [1], the Fold WT came out at 3.28 fold.

For the substance S267E alemtuzumab (antibody), in test [1], the Fold WT came to 2.62 fold.

As for T260H alemtuzumab (antibody), in test [1], the Fold WT was found to be 1.86 fold.

Turning to V264I/I332E alemtuzumab (antibody), in test [2], the ADCC log(EC50) is 0.6 log(ng/ml).
